Consider two molecules from publication doi:10.1101/2022.07.22.501112, “An unexpected histone chaperone function for the MIER1 histone deacetylase complex” (bioRxiv, 2022).

Numbered stars: 1 amine (or outer) side, 2 acyl side, 3 side chain; on linkers, the order of the positions; unused ones are H or OH. Square brackets hold non-standard residues; d marks the D form. Ends that are not written are not given here. Lys(Me3) = C[N+](C)(C)CCCC[C@H](N)C(=O)O; Ethylenediamine = C(CN[*:2])N[*:1]; 5‑FAM = fluorescent label

Test [1] concerns the target T1, E. coli expressed BAHD1(aa:588-780) (UniProt Q8TBE0 588-780).
T1 construct: BAHD1, BAH domain, residues 588-780; also called BAH domain of BAHD1; source: E. coli expressed
T1 sequence (looked up): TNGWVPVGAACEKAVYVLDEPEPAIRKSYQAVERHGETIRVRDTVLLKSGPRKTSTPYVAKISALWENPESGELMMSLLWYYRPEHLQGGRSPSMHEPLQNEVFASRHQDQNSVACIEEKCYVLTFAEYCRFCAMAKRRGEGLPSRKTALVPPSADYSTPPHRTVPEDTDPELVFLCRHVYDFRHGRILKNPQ
In words: fluorescence polarisation; 5 nM 5-FAM labelled histone peptide, BAHD1(aa:588-780) 0-142 uM, 25 mM Tris/Cl pH 7.5, 50 mM NaCl, 15 mins at 37 C; one-site binding model. The conditions noted are these: both partners purified. A general note: Polarisation of emitted light reports the rotation of a fluorescent probe.

For test [2], the target named is T2, Full length HDAC1(aa:1-482) (UniProt Q13547 1-482).
T2 construct: also called histone deacetylase 1
As to the kind of experiment: co-IP + SEC; FLAG-tagged MIER1 construct co-expressed with untagged HDAC1 in HEK293F; anti-FLAG M2 resin, TEV cleavage, Superdex S200 in 25 mM Tris/HCl pH 7.5, 50 mM potassium acetate, 0.5 mM TCEP; SDS-PAGE, bands identified by MS. The conditions noted are these: partners not purified.

T2 sequence (Q13547 whole entry): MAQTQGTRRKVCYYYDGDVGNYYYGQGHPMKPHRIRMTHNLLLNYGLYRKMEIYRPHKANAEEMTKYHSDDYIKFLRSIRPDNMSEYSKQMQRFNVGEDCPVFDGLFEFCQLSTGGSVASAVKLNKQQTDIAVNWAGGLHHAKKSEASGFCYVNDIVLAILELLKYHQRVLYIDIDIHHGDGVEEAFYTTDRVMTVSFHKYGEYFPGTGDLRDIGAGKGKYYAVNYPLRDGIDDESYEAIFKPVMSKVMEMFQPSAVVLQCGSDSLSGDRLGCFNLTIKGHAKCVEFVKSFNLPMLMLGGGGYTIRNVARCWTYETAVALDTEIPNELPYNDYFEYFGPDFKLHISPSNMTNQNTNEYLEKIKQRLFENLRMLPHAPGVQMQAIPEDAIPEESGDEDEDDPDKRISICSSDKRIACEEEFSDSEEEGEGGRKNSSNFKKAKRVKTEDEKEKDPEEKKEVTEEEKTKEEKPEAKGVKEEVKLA

B1: H3 16-35 K27me3 peptide (peptide)
peptide: PRKQLATKAAR[Lys(Me3)]SAPATGG-{Ethylenediamine-4‑Abu-5‑FAM}
notes: The twelfth letter (K27) is trimethyl-lysine; also called H3 histone tail bearing a K27me3 modification; source: synthetic peptide, bought: Cambridge Research Biochemicals
For the molecule B1, the binding result in test [1] is reported as “binds”.

B2: FLAG-tagged MIER1(aa:171-350), ELM2-SANT domain (domain or fragment, human, UniProt Q8N108 171-350, looked up)
chain: DYIPSEDWKKEIMVGSMFQAEIPVGICRYKENEKVYENDDQLLWDPEYLPEDKVIIFLKDASRRTGDEKGVEAIPEGSHIKDNEQALYELVKCNFDTEEALRRLRFNVKAAREELSVWTEEECRNFEQGLKAYGKDFHLIQANKVRTRSVGECVAFYYMWKKSERYDFFAQQTRFGKKKY
notes: Captured on anti-FLAG resin by the tag; the tag was then cut off by TEV protease before gel filtration and SEC-MALS (21 kDa counted for the fragment); also called MIER ELM2-SANT; source: HEK293F, co-transfected with HDAC1; anti-FLAG resin, TEV cleavage, Superdex S200; not shown: 10xHis-3xFLAG, N-terminal, kept
With B2, the binding result in test [2] is given as “binds”.
